Like-named read-outs stand apart in the source and are kept apart here.
Experiments:
[1] = target: Recombinant MDM2 (baculovirus-expressed, pBlueBacHis2:MDM2) (human) (UniProt Q00987); test: cell-based or functional assay
[2] = target: Recombinant MDM2 (baculovirus-expressed, pBlueBacHis2:MDM2) (human) (UniProt Q00987); test: cell-based or functional assay; remark: listed apart in the source

Chain of Recombinant MDM2 (baculovirus-expressed, pBlueBacHis2:MDM2) (human) (Q00987 whole entry): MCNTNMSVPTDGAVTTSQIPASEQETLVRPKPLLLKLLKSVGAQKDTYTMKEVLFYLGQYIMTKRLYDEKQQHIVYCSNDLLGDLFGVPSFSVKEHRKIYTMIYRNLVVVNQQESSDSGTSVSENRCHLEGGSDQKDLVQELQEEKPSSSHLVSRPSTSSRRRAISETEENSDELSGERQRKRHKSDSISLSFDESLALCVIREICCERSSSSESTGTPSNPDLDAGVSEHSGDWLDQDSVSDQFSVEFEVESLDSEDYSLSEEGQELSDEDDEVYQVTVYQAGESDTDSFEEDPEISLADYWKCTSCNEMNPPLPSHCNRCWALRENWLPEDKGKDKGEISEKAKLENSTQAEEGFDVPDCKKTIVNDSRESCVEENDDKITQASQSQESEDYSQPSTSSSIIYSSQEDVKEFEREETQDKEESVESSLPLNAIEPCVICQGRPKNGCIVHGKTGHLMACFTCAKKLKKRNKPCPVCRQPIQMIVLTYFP

- MDM2 auto-ubiquitination in vitro (molar ratio MTBP:MDM2) [1]: 10
- MDM2 auto-ubiquitination in vitro (molar ratio MTBP:MDM2) [2]: 3
Substance: Recombinant hMTBP (bacterially expressed from pQE-hMTBP) (from UniProt Q96DY7 1-904)

Reference: patent US20080085279A1
